Experimental findings from the nanobody polyreactivity screen of Harvey et al. (2022) are described below.

A short description of the series: yeast display, Sf9 membrane polyspecificity reagent, FACS + sequencing; frameworks hold sequencing errors. In a few lines: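 Using colony PCR, genes from sorted yeast display clones were amplified, then sequenced on MiSeq at 2 × 250 and filtered by CDR length. The clones had been stained with 10% biotinylated, detergent-solubilized Sf9 membrane reagent for 1 hour at 4 °C and sorted by FACS into low and high (top ~1%) gates on anti-HA and streptavidin fluorescence. Polyreactivity labels come from the gate of origin.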
As to “QDQLVESGGGLVQAGGSLRLSCAASGRILKYNAMGWYRQAPGKERELVAAISYRGGSTYYADSVKGRFTISRDNAMNTVYLQMNSLKPEDTAVYYCNAGGGILNGPLFDYWGQGTQVTVSS”, the “polyreactivity (PSR sort gate)” value was “low polyreactivity”. The entry for “QDQLVESGGGLVQAGGSLRLSCAASGRNFKYYGMRRYRQAPVKERDLVAAISRGSSTNYADSVKGRFTISRDNAKKTVYLQMYSLKPEDTAVYYCAVSLRRGGSGYAYDNWGQGTQVTVSA” is “high polyreactivity”; for “QDQLVESGGGLVQAGGSLRLSCAASGRTCGYYTMGWYRQAPGKERELVATISSDGTTNYADSVKGRFTISRDNAKNTVYLQMNSLKQEDTAGYYCNADFRLQYYYRIYDYWGQGTQVTVSS” it is “low polyreactivity”; for “QDQLVESGGGLVQAGGSLRLSCAASGRTFASYAMGWYRQAPGKERELVAAITSSGGRTYYADSVKGRFTISRDYAKNTVYLQMNSLKPEVTAVYYCAVRGTKGYGYWGQGTQVTVSS” it is “high polyreactivity”. The value for “QDQLVESGGGLVQAGGSLRLSCAASGRTFGDKALGWYRQAPGKERELVAAISWSGGRTYYADSVKGRFTISRDYGKNTVYLQMNSLKPEDTAVYYCAARNNRYPLYNYWGQGTQVTVSS” was “low polyreactivity”.

Consider “QDQLVESGGGLVQAGGSLRLSCAASGRTFGTNARGWYRQAPGKERELVAGINYSDGSTYYADSVKGRFTISRDNAKNTVYLQMNSLKPEVTAVYYCAADPGWAWWELYYWGQGTQVTVSS”, for which the “polyreactivity (PSR sort gate)” value is reported as “low polyreactivity”. For “QDQLVESGGGLVQAGGSLRLSCAASGRTFIRNAMGWYRQAPGKERELVAAITNSGGSTYYADSVKGRFTISRDNAKNTVYLQMNSLNPEDTAVYDCNRVYRSHRPYTYPFSYDYWGQGTQVTVSS”, the “polyreactivity (PSR sort gate)” value was “high polyreactivity”.

With “QDQLVESGGGLVQAGGSLRLSCAASGRTFKGYAMGWYRQAPGKERELVAAIDSDGSTSYADSVKGRFTISRDNAKNTVYLQMISLKPEDTAVYYCAAAGQRPYEKGDYWGQGTQVTVSS”, the “polyreactivity (PSR sort gate)” value is “low polyreactivity”.

Regarding “QDQLVESGGGLVQAGGSLRLSCAASGRTFPRNAMGWYRQAPGKERELVAAISSTGDSTYYADSVKGRFTISRDNAKNTVYLQMNSLKPEDTAVYYCHYPYDYWGQGTQVTVSS”, the “polyreactivity (PSR sort gate)” value is reported as “low polyreactivity”. As to “QDQLVESGGGLVQAGGSLRLSCAASGRTFYFYAMGWYRQAPGKERELVAAISWTGGITYYADSVKGRFTISRDNAKNTVYLQMNSLKPEDTAVYYCAKKYYKVHKFDYWGQGTQVTVSS”, the “polyreactivity (PSR sort gate)” value is recorded as “low polyreactivity”. For the sequence “QDQLVESGGGLVQAGGSLRLSCAASGRTFYYYTMGWDRQAPGKERELVAAISRRGGRTYYADSVKRRFTISRDNAKNTVYLQMTSLKPEDTAVYYCAADRDHVVDFDYWGQGTQVTVSS”, the “polyreactivity (PSR sort gate)” value was “high polyreactivity”. The entry for “QDQLVESGGGLVQAGGSLRLSCAASGRTIVLNPMGWYRQAHGKERELVAAISSGGSTNYADSVKGRFTISRDNAKNTVYLQMNSLNPEDTAVYYCAGQDVNLYSAYYYWGQGTQVTVSS” is “low polyreactivity”; for “QDQLVESGGGLVQAGGSLRLSCAASGRTLGKYAMGWSRQAPGQERELVAAITQRGGITYYADSVQGRFTISRDNAKNTVYLQMNSLKPEDTAVYYCAASLYSYRSPYTFYYWGQGTQVTVSS” it is “high polyreactivity”. Take “QDQLVESGGGLVQAGGSLRLSCAASGRTLVGNAMGLYRQAHGKERELVAAISLSDDITYYADSVKGRFTISRDNAKKTFYLQMNSLKPEDTAVYYCAAVYPGDSDFLGSYEESDSWGQGTQVTVSS”: the “polyreactivity (PSR sort gate)” value is reported as “low polyreactivity”. As for “QDQLVESGGGLVQAGGSLRLSCAASGRTLVHYGMGRYRQAPRKERELVAVITSGGSTYYADSVKARFTISRDNAKNTVYLQMNSLKPEDTAVYYCAAYKERFYEEYGYWGQGTQLTVSS”, the “polyreactivity (PSR sort gate)” value was “low polyreactivity”. For the sequence “QDQLVESGGGLVQAGGSLRLSCAASGSIFEINAMGWYRQSPGKERELVAAITGSGGSTHYADSVKGRFTISRDNAKNTVYLQMNSLKPEDTAVYYCAAVPRYQYGYWGQGTQVTVSS”, the “polyreactivity (PSR sort gate)” value is “low polyreactivity”. In the case of “QDQLVESGGGLVQAGGSLRLSCAASGSIFGRNTMGWYRQAPGKERELVAAISSSGGSTRYADSVKGRFTISRDNAKNTVYLQMNSLKPEDTAVYYCNAKRYGGRQASYNLGDYWGQGTEVTVSS”, the “polyreactivity (PSR sort gate)” value is “high polyreactivity”. The entry for “QDQLVESGGGLVQAGGSLRLSCAASGSIFGVYAMGWYRQAPGKEGELVAAISWTDGTTYYADSVKGRFTISRDNAKNTVYLQMNSLKQEDTAVYYCAVTYPRVAKVMYYWGQGTQVNVSS” is “high polyreactivity”; for “QDQLVESGGGLVQAGGSLRLSCAASGSIFGVYAMGWYRQAPGKERELVAVISFNSGSTNYADSVKGRFTISRDNAKNTVYLQMNSLKPEDTAVYYCNSDAWHETQVSGYSWGQGTQVTVSS” it is “low polyreactivity”; for “QDQLVESGGGLVQAGGSLRLSCAASGSIFKYNMGWYRQAPGKERELVAAISRGGSTYYADSVKGRFTISRDNAKNTVYLQMTRLKPEDTAVYYCNAATSRRFSGMNYCGQGTQVTVSS” it is “high polyreactivity”. The value for “QDQLVESGGGLVQAGGSLRLSCAASGSIFPHNAKGSYRQAPGKERELVASITSRGGITYYADSVKGRFTISRDNAKNTVYLQMNSLKPEDTAVYYCAADTYTDGYDYWGQGTQVTVSS” was “low polyreactivity”.

As for “QDQLVESGGGLVQAGGSLRLSCAASGSIFRVYVMGWYRQAPGKERELVAAITSSDGSTYYADSVKGRFTISRDNAKNTVYLQMNSLKPEDTAVYYCNAEFYSPRVVVPRYWYPGDYWGQGTQVTVSS”, the “polyreactivity (PSR sort gate)” value is listed as “low polyreactivity”. For “QDQLVESGGGLVQAGGSLRLSCAASGSIFSYYAMGWYRQAAGKERELVAAINDGGGSTYYADSVKGRFTISRDNAKNTVYLQMNSLKPEDTAVYYCAAEWSWGPYRYDYWGQGTQVTVSS”, the “polyreactivity (PSR sort gate)” value is given as “high polyreactivity”. For the sequence “QDQLVESGGGLVQAGGSLRLSCAASGSIFWVYVMGWYSQAPGKERELVAAITNGGSTDYADSVKGRFTISRDNAKNTVYLQLNSLKPEDTAVYYCAKRSPIWGRILITYDYWGQGTQVTVSS”, the “polyreactivity (PSR sort gate)” value is “low polyreactivity”. With “QDQLVESGGGLVQAGGSLRLSCAASGSIIDYYDMGWYRQAPGKEREFVAAINWSGGNTHYADSVKGRFTISRDNAKNTVYLQMNSLKPEDTAVYYCAVDVKIGTDFIGVVIPGDYWGQGTQVTVSS”, the “polyreactivity (PSR sort gate)” value is listed as “low polyreactivity”. Regarding “QDQLVESGGGLVQAGGSLRLSCAASGSIIGWYAMGWYRQARGKERELVAAITFSSVSTYYADSVKGRFTISRDNAKNTVYLQMNSLKPEDTAVYYCAAVVYYTFDYCGQGTQVTVSS”, the “polyreactivity (PSR sort gate)” value is listed as “low polyreactivity”. Regarding “QDQLVESGGGLVQAGGSLRLSCAASGSILAYNAMGWYRQAPGKERQLVAAIRLSGGSTYYADSVKGRFTISRDNAKNTVYLQMNSLKPEDTAVYYCARRYYRYDTRKYNYWGQGTQVSVSS”, the “polyreactivity (PSR sort gate)” value was “high polyreactivity”. On to “QDQLVESGGGLVQAGGSLRLSCAASGSILRQYAMGWYRQAPGKERELVATITGDGSTNYADSVKGRFTISRDNAKNTVYLQMHSLKPEDTAVYYCAVIGYHYSAISPPSQTRQGYDYWGQGTQVTVSS”, for which the “polyreactivity (PSR sort gate)” value is “low polyreactivity”. As for “QDQLVESGGGLVQAGGSLRLSCAASGSISVANAMGWYRQAPGKERELVAAISWRSDSTYYADSVKGRFTISRDNAKNTVYLQMNSLKPEDTAVYYCAASQYPLIWYDYWGQGTQVTVSS”, the “polyreactivity (PSR sort gate)” value is given as “low polyreactivity”. As for “QDQLVESGGGLVQAGGSLRLSCAASGSNFVPYAMGWYRQSPGKERELVAAISGSGTRTYYAYSVKGRFTISRDNSKNTVYLQMNSLKPEDTAVYYCDADWRRSVGYTMGYWGQGTQVTVSS”, the “polyreactivity (PSR sort gate)” value was “high polyreactivity”.

Regarding “QDQLVESGGGLVQAGGSLRLSCAASGSNYKYYPMGWYRTAPGKERELVAAITWGGGSTYYADSVKGRFTISRDNAKNTFYLQLNSLKPEDTAVYYCAASLFPYQYDAYFSHRKAFYYWGQGTQVTVSS”, the “polyreactivity (PSR sort gate)” value is “high polyreactivity”. As to “QDQLVESGGGLVQAGGSLRLSCAASGSRLGGYAMGWYRQAPGKERELVAAITWNGGRTYYADSVKWRFTISRDNAKNTVYLQMNILKPEDTAVYYCAADYSKGYEYWGQVTQVTVSS”, the “polyreactivity (PSR sort gate)” value is on record as “high polyreactivity”. With “QDQLVESGGGLVQAGGSLRLSCAASGSTFAFKTMGWYRQAPGKERELVAGISSNGGRTYYADSVKGRFTISRDNAKNTVYLQMNSLKPEDTAVYYCNALRRYVSVRPTKSDYWGQGTQVTVSS”, the “polyreactivity (PSR sort gate)” value is given as “high polyreactivity”. As to “QDQLVESGGGLVQAGGSLRLSCAASGSTFEVYAMGWYRQAPGKERELVAGITRGGSTNYADSVKGRFTISRDNAKNTVYLQMNSLKPEDTAVYYCAAPKYLGTDEYDYWGQGTQVTVSS”, the “polyreactivity (PSR sort gate)” value is given as “low polyreactivity”. “QDQLVESGGGLVQAGGSLRLSCAASGSTFGYYAMGWYRQAPGKERELVAAITSGASTNYADSVKGRFTISRDNAKNTVYLQMNSLKPEDTAVYYCAAGFQTRTPLNEFDYWGQGTQVTVSS”: the “polyreactivity (PSR sort gate)” value is recorded as “low polyreactivity”.

In the case of “QDQLVESGGGLVQAGGSLRLSCAASGSTFKYYGMGWYRQAPGKERELVAAITSGGSTYDADSVKGRFTISRDNAKNTVYLQMNSLKPEDTAVYYCNTTAYSPTPYDYWGQGTQVTVSS”, the “polyreactivity (PSR sort gate)” value is listed as “low polyreactivity”. Regarding “QDQLVESGGGLVQAGGSLRLSCAASGSTFPFYAMGWDRQAPGKERELVAAITSGGSTYADSVKGRFTISRDNAKNTVYLQMNSLKPEDTAVYYCAAVGWFADCLFSDIKGYSWGQGTPVTVSS”, the “polyreactivity (PSR sort gate)” value is given as “low polyreactivity”. On to “QDQLVESGGGLVQAGGSLRLSCAASGSTFQYYTMGWYRQAPGKERELVAAISGDGGNTYYADSVKGRFTISRDNAKNTVYLQMNRLKPEDTAVYYCNADGLILYDYWGQGTQVTVSW”, for which the “polyreactivity (PSR sort gate)” value is listed as “low polyreactivity”. With “QDQLVESGGGLVQAGGSLRLSCAASGSTFRHYAMGWYRQAPGQESELVAAISSRGGRTYYADSVKGRFTISRDNAKNTVYFQMNSLKPEDTAVYYCAADRFRLYVGGWWYDYWGLGTQVTVSS”, the “polyreactivity (PSR sort gate)” value is “high polyreactivity”. As for “QDQLVESGGGLVQAGGSLRLSCAASGSTFSFYAMGWTRQAPGKERELVAAISRSGGSTFYADSVKGRFTISRDNAKNTVYLQMNSLKPEDSAVYYCAAYGGLQSRYYYWGQGTQVTVSS”, the “polyreactivity (PSR sort gate)” value was “high polyreactivity”. The value for “QDQLVESGGGLVQAGGSLRLSCAASGSTFSRYAMGWYRQAPGKERELVAAITSSGGSTYYADSVKGRFTISRDNAKNTVYLQMNSLKPEDTAVYYCAASYQVRYDYWGQGTQVTVSS” was “high polyreactivity”.
